Results from PMC7946437, “Cardiolipin targets a dynamin-related protein to the nuclear membrane” (eLife, 2021).

B1: Tetrahymena dynamin-related protein 6 (Drp6), N-terminal histidine-tagged (natural protein, Tetrahymena thermophila, UniProt Q38KF5 1-710, looked up)
chain: MTNTIVPANNFQNIKEVIKVVNKLRDFGIESDKIQLPKIVVIGVQSSGKSSLLEQIVQLDFLPRGTGVVTRCPLEIRLIEVTNQDSDFKPYAYFFEERQKIFHDFELVKKEIQKITNDFAGPGKKIVDKVITLTIYQAQCPTLTLIDLPGMTLNSVGDQKDIERVTQDMTKKYIIEKTTIILCVIPINQDLENSLALNLARSVDENGERTIGVLTMIDIMNPGTNCENVLKNRQIPLLHRYYGMKPRSQKDINENVSVQEAIQREQLYFTSHQIYSMYPEYTGTNALTNKLSTLLDSHIRTFLPSIHKKIKMTLSERIKERQQLGNEFPTEVTQQLYELTNIINTSLNLFKQAMTNYDASEIQNIGKIKVDERVGKSYADFLFDKYLLICKKISEEQVFKVKMKDLIKELGKFRVQVNGFLPFEVFESQIKQKINLYETEAIVILEQLKEHVRKVLNHCIDLFPFPNNKIKKIMQDILQNFVQTEYNFTSSHIKTAFYCYKDCICSKMIDIHETESKLKQNHVYLQNDNQQKKVLYEYISKNKSFMEWTVQEIMIKAENLCNVPITMSDLQNTYTKAEEKVQNTDEVLRYSIIYYKYMDNFRKQISDQIPQCIQSLFINSLCKNLMVKVFQAIQSKEYKEIIEKNLKEDEIIATKRAKVIQSIQKLAKANDRLERLIDQGQNCNHMLSTTYGDEENYIHESLEDSDGIDD
notes: Dynamin-related protein 6 (Drp6) of Tetrahymena thermophila; the text calls the His-tagged protein the full-length protein; pRSETB vector; also called His-drp6; WT; source: E. coli C41(DE3), purified (Ni-NTA agarose); not shown: histidine tag, N-terminal, kept
B2: Drp6-I553A, N-terminal histidine-tagged (natural protein, Tetrahymena thermophila, UniProt Q38KF5 1-710, looked up)
chain: MTNTIVPANNFQNIKEVIKVVNKLRDFGIESDKIQLPKIVVIGVQSSGKSSLLEQIVQLDFLPRGTGVVTRCPLEIRLIEVTNQDSDFKPYAYFFEERQKIFHDFELVKKEIQKITNDFAGPGKKIVDKVITLTIYQAQCPTLTLIDLPGMTLNSVGDQKDIERVTQDMTKKYIIEKTTIILCVIPINQDLENSLALNLARSVDENGERTIGVLTMIDIMNPGTNCENVLKNRQIPLLHRYYGMKPRSQKDINENVSVQEAIQREQLYFTSHQIYSMYPEYTGTNALTNKLSTLLDSHIRTFLPSIHKKIKMTLSERIKERQQLGNEFPTEVTQQLYELTNIINTSLNLFKQAMTNYDASEIQNIGKIKVDERVGKSYADFLFDKYLLICKKISEEQVFKVKMKDLIKELGKFRVQVNGFLPFEVFESQIKQKINLYETEAIVILEQLKEHVRKVLNHCIDLFPFPNNKIKKIMQDILQNFVQTEYNFTSSHIKTAFYCYKDCICSKMIDIHETESKLKQNHVYLQNDNQQKKVLYEYISKNKSFMEWTVQEAMIKAENLCNVPITMSDLQNTYTKAEEKVQNTDEVLRYSIIYYKYMDNFRKQISDQIPQCIQSLFINSLCKNLMVKVFQAIQSKEYKEIIEKNLKEDEIIATKRAKVIQSIQKLAKANDRLERLIDQGQNCNHMLSTTYGDEENYIHESLEDSDGIDD
notes: Dynamin-related protein 6 (Drp6) of Tetrahymena thermophila with I553A, made by site-directed mutagenesis of the His-drp6 construct; pRSETB vector; same limits as His-drp6 are likely (point mutant of that construct); also called His-drp6-I553A; I553A-Drp6; source: E. coli C41(DE3), purified (Ni-NTA agarose); not shown: histidine tag, N-terminal, kept
B3: Drp6-I553M, N-terminal histidine-tagged (natural protein, Tetrahymena thermophila, UniProt Q38KF5 1-710, looked up)
chain: MTNTIVPANNFQNIKEVIKVVNKLRDFGIESDKIQLPKIVVIGVQSSGKSSLLEQIVQLDFLPRGTGVVTRCPLEIRLIEVTNQDSDFKPYAYFFEERQKIFHDFELVKKEIQKITNDFAGPGKKIVDKVITLTIYQAQCPTLTLIDLPGMTLNSVGDQKDIERVTQDMTKKYIIEKTTIILCVIPINQDLENSLALNLARSVDENGERTIGVLTMIDIMNPGTNCENVLKNRQIPLLHRYYGMKPRSQKDINENVSVQEAIQREQLYFTSHQIYSMYPEYTGTNALTNKLSTLLDSHIRTFLPSIHKKIKMTLSERIKERQQLGNEFPTEVTQQLYELTNIINTSLNLFKQAMTNYDASEIQNIGKIKVDERVGKSYADFLFDKYLLICKKISEEQVFKVKMKDLIKELGKFRVQVNGFLPFEVFESQIKQKINLYETEAIVILEQLKEHVRKVLNHCIDLFPFPNNKIKKIMQDILQNFVQTEYNFTSSHIKTAFYCYKDCICSKMIDIHETESKLKQNHVYLQNDNQQKKVLYEYISKNKSFMEWTVQEMMIKAENLCNVPITMSDLQNTYTKAEEKVQNTDEVLRYSIIYYKYMDNFRKQISDQIPQCIQSLFINSLCKNLMVKVFQAIQSKEYKEIIEKNLKEDEIIATKRAKVIQSIQKLAKANDRLERLIDQGQNCNHMLSTTYGDEENYIHESLEDSDGIDD
notes: Dynamin-related protein 6 (Drp6) of Tetrahymena thermophila with I553M, made by site-directed mutagenesis of the His-drp6 construct; pRSETB vector; same limits as His-drp6 are likely (point mutant of that construct); also called His-drp6-I553M; source: E. coli C41(DE3), purified (Ni-NTA agarose); not shown: histidine tag, N-terminal, kept

Experiments:
Drp6 (His-drp6) = target: T1, Drp6 (His-drp6) (Tetrahymena thermophila, UniProt Q38KF5, I553A); experiment: Malachite Green phosphate release (BIOMOL Green); format: biochemical; conditions: 1 mM GTP, 1 µM protein, 25 mM HEPES pH 7.5, 15 mM KCl, 2 mM MgCl2, 37°C
T1 construct: full length aa 1-710, N-terminal His tag (pRSETB), expressed in E. coli C41(DE3), Ni-NTA; higher-order oligomer (at least six monomers)

[1] = substrate: Nc1nc2c(ncn2[C@@H]2O[C@H](COP(=O)(O)OP(=O)(O)OP(=O)(O)O)[C@@H](O)[C@H]2O)c(=O)[nH]1; experiment: Malachite Green phosphate release (BIOMOL Green); format: biochemical, Tetrahymena thermophila; conditions: 25 mM HEPES pH 7.5, 15 mM KCl, 2 mM MgCl2, 37°C, 10 min, GTP 50-2000 µM
[2] = target: the molecule itself; experiment: SEC; Superdex 200 GL 10/300; 500 µl of protein (0.5 mg/ml) in buffer A, 0.5 ml/min, absorbance at 280 nm; self-assembly into higher order oligomers

| Molecule | Malachite Green phosphate release (BIOMOL Green) (Drp6 (His-drp6)) | Km [1] | stoichiometry N [2] | binding result [2] |
| --- | --- | --- | --- | --- |
| Nc1nc2c(ncn2[C@@H]2O[C@H](COP(=O)(O)OP(=O)(O)OP(=O)(O)O)[C@@H](O)[C@H]2O)c(=O)[nH]1 [GTP] | does not affect its activity as assessed by the rate of GTP hydrolysis |  |  |  |
| B1 |  | 180 µM | ≥ 6 monomers |  |
| B2 |  |  |  | binds |
| B3 |  | 384 µM |  | binds |
